# B1: wt Bfd (C43S mutant of P. aeruginosa bacterioferritin-associated ferredoxin) (natural protein, Pseudomonas aeruginosa)
# chain: MYVCLCQGVTDNQIRDAIYEGCCSYREVREATGVGTQCGKCASLAKQVVRETLNDLQSAQPVPAFGTTAFVAA
# B2: wt BfrB (Pseudomonas aeruginosa bacterioferritin B, 24-mer) (natural protein)
# chain: not shown
# Key:
# [1] = target: B2; assay: SPR
# [2] = target: B2; assay: ITC
# [3] = target: B2; assay: SPR; remark: listed apart in the source
# [4] = target: B2; assay: SPR; remark: listed apart in the source
# [5] = target: E81A BfrB (Pseudomonas aeruginosa, UniProt Q9HY79 1-158, E81A); assay: SPR
# [6] = target: L68A BfrB (Pseudomonas aeruginosa, UniProt Q9HY79 1-158, L68A); assay: SPR
# [7] = target: E85A BfrB (Pseudomonas aeruginosa, UniProt Q9HY79 1-158, E85A); assay: SPR
# [8] = target: B2; assay: SPR; remark: listed apart in the source
# [9] = target: the molecule itself; assay: SEC
# [10] = target: B1; assay: ITC
binder,measurement,setting,value
B1,Kd,[1],2.6 ± 0.4 µM
same,koff,[1],0.069 ± 0.01 s⁻¹
same,kon,[1],26000 ± 2000 M⁻¹ s⁻¹
same,Kd,[2],4.2 ± 0.4 µM
same,stoichiometry N,[3],12.7 Bfd per 24-mer BfrB
same,Kd,[4],3.3 ± 0.5 µM
same,Kd,[5],258 ± 21.5 µM
same,Kd,[6],298 ± 20.5 µM
same,Kd,[7],590 ± 2 µM
"Y2F Bfd (natural protein, Pseudomonas aeruginosa) MFVCLCQGVTDNQIRDAIYEGCCSYREVREATGVGTQCGKCASLAKQVVRETLNDLQSAQPVPAFGTTAFVAA",Kd,[8],10.7 ± 0.2 µM
"K40A Bfd (natural protein, Pseudomonas aeruginosa) MYVCLCQGVTDNQIRDAIYEGCCSYREVREATGVGTQCGACASLAKQVVRETLNDLQSAQPVPAFGTTAFVAA",Kd,[8],7.7 ± 0.5 µM
"L5A Bfd (natural protein, Pseudomonas aeruginosa) MYVCACQGVTDNQIRDAIYEGCCSYREVREATGVGTQCGKCASLAKQVVRETLNDLQSAQPVPAFGTTAFVAA",Kd,[8],82 ± 2.5 µM
B2,binding result,[9],binds
same,dH,[10],1.6 ± 0.3 kcal/mol

# Source: paper PMC4708090 (Biochemistry, 2015)
